This is an account of results in paper PMC7334205.

Experiment in all cases: bimolecular fluorescence complementation (BiFC), quantitative imaging of nuclear Venus fluorescence in cells
For one test, the target named is VN-Impα2 (UniProt P52293). To be noted: 18 h post-transfection, mean ± SEM, three independent experiments, parent: est. 1.0, read off a plot.
The next test concerns the target VN-CIC (UniProt Q96RK0). To be noted: 18 h post-transfection; n = 258 (85Q) and 201 (mVS) nuclei; mean ± SEM, three independent experiments; parent: est. 1.0; read off a plot.
Sequence of UniProt Q96RK0 (Q96RK0 whole entry): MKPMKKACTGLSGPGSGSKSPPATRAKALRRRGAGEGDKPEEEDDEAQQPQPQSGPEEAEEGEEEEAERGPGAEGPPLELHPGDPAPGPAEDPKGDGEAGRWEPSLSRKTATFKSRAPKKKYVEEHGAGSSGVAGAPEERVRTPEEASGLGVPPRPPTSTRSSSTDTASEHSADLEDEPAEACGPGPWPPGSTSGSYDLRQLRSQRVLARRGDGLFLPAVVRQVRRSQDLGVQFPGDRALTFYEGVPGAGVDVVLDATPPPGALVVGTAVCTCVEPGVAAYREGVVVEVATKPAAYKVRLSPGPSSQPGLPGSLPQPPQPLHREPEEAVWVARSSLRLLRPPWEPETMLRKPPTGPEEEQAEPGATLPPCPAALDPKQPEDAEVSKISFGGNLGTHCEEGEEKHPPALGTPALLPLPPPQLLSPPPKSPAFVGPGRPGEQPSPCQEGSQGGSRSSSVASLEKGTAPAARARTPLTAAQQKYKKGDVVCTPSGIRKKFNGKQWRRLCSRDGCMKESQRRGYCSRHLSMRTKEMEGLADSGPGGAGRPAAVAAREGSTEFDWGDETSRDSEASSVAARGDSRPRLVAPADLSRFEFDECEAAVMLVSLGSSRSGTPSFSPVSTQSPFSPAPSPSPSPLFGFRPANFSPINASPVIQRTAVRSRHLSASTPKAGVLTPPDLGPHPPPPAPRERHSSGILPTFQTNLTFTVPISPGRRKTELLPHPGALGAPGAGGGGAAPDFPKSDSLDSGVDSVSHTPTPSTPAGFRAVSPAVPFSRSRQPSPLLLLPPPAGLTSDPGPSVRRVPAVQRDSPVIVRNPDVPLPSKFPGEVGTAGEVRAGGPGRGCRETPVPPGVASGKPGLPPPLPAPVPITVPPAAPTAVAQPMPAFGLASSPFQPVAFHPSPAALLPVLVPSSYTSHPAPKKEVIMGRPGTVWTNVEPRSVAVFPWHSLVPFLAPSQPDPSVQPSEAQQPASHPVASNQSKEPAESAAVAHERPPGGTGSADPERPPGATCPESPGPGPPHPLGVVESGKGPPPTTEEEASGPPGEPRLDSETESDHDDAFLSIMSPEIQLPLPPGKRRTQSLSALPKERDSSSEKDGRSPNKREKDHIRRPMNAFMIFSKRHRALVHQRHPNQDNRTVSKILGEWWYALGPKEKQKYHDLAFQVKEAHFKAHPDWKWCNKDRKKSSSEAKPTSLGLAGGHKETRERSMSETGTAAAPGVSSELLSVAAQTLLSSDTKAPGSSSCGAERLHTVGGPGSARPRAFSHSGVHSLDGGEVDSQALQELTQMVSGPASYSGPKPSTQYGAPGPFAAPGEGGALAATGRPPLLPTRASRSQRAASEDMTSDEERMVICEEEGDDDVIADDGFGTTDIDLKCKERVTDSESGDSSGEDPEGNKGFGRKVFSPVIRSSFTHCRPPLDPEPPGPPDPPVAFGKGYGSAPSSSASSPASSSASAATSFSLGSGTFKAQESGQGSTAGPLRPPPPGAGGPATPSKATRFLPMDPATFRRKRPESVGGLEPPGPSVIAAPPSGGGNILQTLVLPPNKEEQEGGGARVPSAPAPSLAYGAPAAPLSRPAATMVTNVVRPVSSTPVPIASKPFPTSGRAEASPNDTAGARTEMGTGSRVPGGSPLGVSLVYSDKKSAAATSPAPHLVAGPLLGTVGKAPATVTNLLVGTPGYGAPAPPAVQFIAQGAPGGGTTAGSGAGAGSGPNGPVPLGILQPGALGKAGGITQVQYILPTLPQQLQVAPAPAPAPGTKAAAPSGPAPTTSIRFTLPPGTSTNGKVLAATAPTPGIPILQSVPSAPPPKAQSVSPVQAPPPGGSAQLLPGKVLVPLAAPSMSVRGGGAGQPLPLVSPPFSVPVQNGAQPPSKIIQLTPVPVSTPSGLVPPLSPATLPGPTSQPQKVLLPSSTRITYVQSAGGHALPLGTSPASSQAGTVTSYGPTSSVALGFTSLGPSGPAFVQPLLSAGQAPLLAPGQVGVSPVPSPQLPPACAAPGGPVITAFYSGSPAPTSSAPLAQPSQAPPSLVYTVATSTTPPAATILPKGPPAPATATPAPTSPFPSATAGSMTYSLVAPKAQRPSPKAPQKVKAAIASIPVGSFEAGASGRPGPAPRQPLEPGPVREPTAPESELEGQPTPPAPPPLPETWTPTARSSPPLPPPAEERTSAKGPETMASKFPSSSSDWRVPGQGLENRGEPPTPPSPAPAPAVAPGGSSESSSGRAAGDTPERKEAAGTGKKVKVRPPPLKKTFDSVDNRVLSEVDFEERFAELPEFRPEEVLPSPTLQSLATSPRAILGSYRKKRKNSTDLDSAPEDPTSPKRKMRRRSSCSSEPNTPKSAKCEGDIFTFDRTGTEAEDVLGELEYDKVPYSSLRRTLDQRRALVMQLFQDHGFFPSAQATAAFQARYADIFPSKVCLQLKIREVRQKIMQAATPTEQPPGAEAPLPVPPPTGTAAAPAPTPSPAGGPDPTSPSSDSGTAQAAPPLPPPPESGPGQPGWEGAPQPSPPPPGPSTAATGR
A further test addresses VC-ataxin-1[85Q] (UniProt P54253). To be noted: 18 h post-transfection; n = 155 (wild-type Impα2) and 131 (mDE) nuclei; mean ± SEM, three independent experiments; parent: est. 1.0; read off a plot.

Turning to “VC-ataxin-1[85Q] (from UniProt P54253) K772T”, in the test with VN-Impα2 (n = 155 (85Q) and 172 (K772T) nuclei), the ratio to parent came out at 0.55.
Take “VC-ataxin-1[85Q] (from UniProt P54253) V591A; S602D”: the ratio to parent with VN-Impα2 (n = 101 and 101 nuclei) turned out to be 0.72; with VN-CIC, 0.47.
In the case of “VN-Impα2 (from UniProt P52293) D192K; E396R”, the ratio to parent in the test with VC-ataxin-1[85Q] was 0.75.
